These results are taken from patent US5643726, “Methods for modulating transcription from the amyloid β-protein precursor (APP) promoter” (The General Hospital Corporation, dated 1996).

The target of series [1] is T1, USF (43 kDa, recombinant USF) (UniProt P22415 P22415:1-310). In words: EMSA; visible complex with 350 pg rUSF; competed by cold DK-1. Particulars: tags: expressed in and purified from bacteria; chain copies: 2; label: 32P. How it is done:
(§1) EMSA was carried out as in Miner et al. (Miner, L. L. et al., *J. Neurosci. Res.* 33:10–18 (1992)). 1 ng of DNA fragment was incubated with 1 µg nuclear extract for 20 rain at 20° C., unless otherwise indicated. After incubation, the binding mixture was resolved on 6% polyacrylamide gels containing 4% glycerol in 25 mM Tris-borate (pH 8.3), 0.5 mM EDTA. Gels were dried and exposed to Kodak X-OMAT AR film with intensifying screen.
(§2) The amount of complex formed decreased with increasing amounts of cold fragment.
On the technique in general: In EMSA bound probe runs differently from free probe, usually more slowly.

Series [2] deals with T1, USF (43 kDa, recombinant USF). In words: competition; cold competitor up to 50-fold failed to diminish complex on DK-1. Conditions: tags: expressed in and purified from bacteria; chain copies: 2. The procedure:
as §1, §2

The target in series [3] is upstream stimulatory factor (USF), 43 kDa form (Homo sapiens (Human), UniProt P22415). Nature of the series: cell-based or functional assay.

T1 sequence (P22415 whole entry, the tested form may be a part, one chain of several): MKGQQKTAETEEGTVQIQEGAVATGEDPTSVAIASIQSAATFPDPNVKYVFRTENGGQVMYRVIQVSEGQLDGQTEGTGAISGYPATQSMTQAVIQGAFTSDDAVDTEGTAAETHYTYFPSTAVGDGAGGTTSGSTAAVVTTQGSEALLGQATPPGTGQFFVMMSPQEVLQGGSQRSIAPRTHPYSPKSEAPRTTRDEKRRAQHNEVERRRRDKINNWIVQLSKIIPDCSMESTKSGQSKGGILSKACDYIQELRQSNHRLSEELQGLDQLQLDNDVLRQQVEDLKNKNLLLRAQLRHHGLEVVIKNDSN

B1: DK-1 fragment (APP promoter -58 to -30, AP-1/AP-4) (dsDNA)
DNA 1: GGGCCGGATCAGCTGACTCGCCTGGCTCT
DNA 2: AGAGCCAGGCGAGTCAGCTGATCCGGCCC
As for B1, the binding result in series [1] is “binds”.

B2: AP-1/AP-4 Random (dsDNA)
DNA 1: GGGCCGGAATCGTGCTGTCGCCTGGCTCT
DNA 2: AGAGCCAGGCGACAGCACGATTCCGGCCC
For B2, the binding result in series [2] is reported as “no binding”.

B3: mouse amyloid precursor-like protein APLP1 (other)
chain: MGPTSPAARGQGRRWRPPLPLLLPLSLLLLRAQLAVGNLAVGSPSAAEAPGSAQVAGLCGRLTLHRDLRTGRWEPDPQRSRRCLLDPQRVLEYCRQMYPELHIARVEQAAQAIPMERWCGGTRSGRCAHPHHEVVPFHCLPGEFVSEALLVPEGCRFLHQERMDQCESSTRRHQEAQEACSSQGLILHGSGMLLPCGSDRFRGVEYVCCPPPATPNPSGMAAGDPSTRSWPLGGRAEGGEDEEEVESFPQPVDDYFVEPPQAEEEEEEEEERAPPPSSHTPVMVSRVTPTPRPTDGVDVYFGMPGEIGEHEGFLRAKMDLEERRMRQINEVMREWAMADSQSKNLPKADRQALNEHFQSILQTLEEQVSGERQRLVETHATRVIALINDQRRAALEGFLAALQGDPPQAERVLMALRRYLRAEQKEQRHTLRHYQHVAAVDPEKAQQMRFQVQTHLQVIEERMNQSLGLLDQNPHLAQELRPQIQELLLAEHLGPSELDASVPGSSSEDKGSLQPPESKDDPPVTLPKGSTDQESSSSGREKLTPLEQYEQKVNASAPRGFPFHSSDIQRDELAPSGTGVSREALSGLLIMGAGGGSLIVLSLLLLRKKKPYGTISHGVVEVDPMLTLEEQQLRELQRHGYENPTYRFLEERP
For B3, the “relative luciferase units (USF activation of transcription from the APP promoter)” value in series [3] is around 2 fold.

B4: human amyloid precursor-like protein APLP2 (other)
chain: GYIEALAAAAGTGFAVAEPQIAMFCGKLNMHVNIQTGKWEPDPTGTKSCFRTKEEVLQYCQEMYPELQITNVMEANQRVSIDNWCRRDKKQCKSRFVTPFKCLVGEFVSDVLLVPEKCRFFHKERMEVCENHQHWHTVVKEACLTQGMTLYSYGMLLPCGVDQFHGTEYVCCPQTKDYWSVSKEEEEEEDEEEEEEEDEEEDYDVYKSEFPTEADLEDFTEAAVDEDDEDEEEGEEVVEDRDYYYDTFKGDDYNEENPTEPGSDGTMSDKEITHDVKVPPTPLPTNDVDVYFETSADDNEHARFQKAEKEQLIERHRNRMDRVKKEWEEAELQAKNLPKAERQTLIQHFQAMVKALEKAEAASEKQQLVETHLARVEAMLNDRRMALENYLAALQRSDPPRPHRILQPLRRYVRAENKDRLHTIRHYQHVLAVDPEKAAQMKSQVMTHLHVIEERRNQSLSLLYKDPYVARIQENDELLQAERADMDQFTASISETPVDVRVSSEESEEIPPFHPFHPFPALPENEDTQPELYHPMKKGSGVGEQDGGLIGAEEKVINSKNKVDENMVIDETLDKEMIFNAERVGGLEERESVGPLREDFSLSSSASIGLLVIAVAIATVIVISLVMLRKRQVCTISHGIVEVDPMLTPEERHLNKMQNHGYENPTYKTLEQMQI
For the molecule B4, the “relative luciferase units (USF activation of transcription from the APP promoter)” value in series [3] was around 2 fold.
